This is an account of results in US6531296.

The assay has as its target T1, GST-RbC, Rb fusion protein encoding amino acids 780-928 (COOH-terminal domain only) (UniProt P06400).
T1 sequence (looked up): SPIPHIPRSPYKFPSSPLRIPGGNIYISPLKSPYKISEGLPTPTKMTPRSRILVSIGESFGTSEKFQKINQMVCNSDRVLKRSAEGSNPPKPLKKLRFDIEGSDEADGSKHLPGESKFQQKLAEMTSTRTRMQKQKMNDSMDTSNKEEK
In words: in vitro translated Rak on GST-RbC beads, SDS-PAGE and autoradiography (FIG. 5B, upper panel).

B1: Rak protein (p54^rak), full-length nuclear tyrosine kinase (enzyme)
chain: MSNICQRLWEYLEPYLPCLSTEADKSTVIENPGALCSPQSQRHGHYFVALFDYHAPTAEELSFRAGDKLQVLDTLHEGWWFARHLEKRRDGSSQQLQGYIPSNYVAEDRSLQAEAWFFGAIRRSDAEKQLLYSENKTGSFLIRESESQKGEFSLSVLDGAVVKHYRIKRLDEGGFFLTRRRIFSTLNEFVSHYTKTSDGLCVKLGKPCLKIQVPAPFDLSYKTVDQWEIDRNSIQLLKRLGSGQFGEVWEGLWNNTTPVAVKTLKPGSMDPNDFLREAQIMKNLRHPKLIQLYAVCTLEDPIYIITELMRHGSLQEYLQNDTGSKIHLTQQVDMAAQVASGMAYLESRNYIHRDLAARNVLVGEHNIYKVADFGLARVFKVDNEDIYESRHEIKLPVKWTAPEAIRSNKFSIKSDVWSFGILLYEIITYGKMPYSGMTGAQVIQMLAQNYRLPQPSNCPQQFYNIMLECWNAEPKERPTFETLRWKLEDYFETDSSYSDANNFIR
B1 returned a fold less binding than to the RbABC fusion protein of 5 fold less.
